Assay [1] concerns the target Cynomolgus CD3ε/δ (cynomolgus monkey) (UniProt Q95LI5). Kind of assay: kinetic binding measurement, method not stated.
Assay [2] has as its target Human CD3ε/δ (human) (UniProt P07766). Kind of assay: kinetic binding measurement, method not stated.

Data on one molecule can be found in patent US20220323583A1, “Pharmaceutical Formulations of Bi-Specific Diabodies and Use of the Same” (MacroGenics, Inc., priority 2019, published 2022).

Human CD3ε/δ (human), sequence (P07766 23-126, stated change not applied, chain 1 of 2): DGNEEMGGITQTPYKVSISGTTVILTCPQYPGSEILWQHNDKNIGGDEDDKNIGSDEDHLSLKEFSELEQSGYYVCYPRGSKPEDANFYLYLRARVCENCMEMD
Human CD3ε/δ (human), sequence (P04234 22-105, stated change not applied, chain 2 of 2, further chain): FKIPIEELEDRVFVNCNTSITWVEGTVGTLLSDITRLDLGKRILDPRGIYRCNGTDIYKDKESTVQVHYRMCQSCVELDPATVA

B1: DART-A, sequence-optimized CD123×CD3 bispecific diabody (bispecific antibody)
chain 1: QAVVTQEPSLTVSPGGTVTLTCRSSTGAVTTSNYANWVQQKPGQAPRGLIGGTNKRAPWTPARFSGSLLGGKAALTITGAQAEDEADYYCALWYSNLWVFGGGTKLTVLGGGGSGGGGEVQLVQSGAELKKPGASVKVSCKASGYTFTDYYMKWVRQAPGQGLEWIGDIIPSNGATFYNQKFKGRVTITVDKSTSTAYMELSSLRSEDTAVYYCARSHLLRASWFAYWGQGTLVTVSSGGCGGGEVAALEKEVAALEKEVAALEKEVAALEK
chain 2: DFVMTQSPDSLAVSLGERVTMSCKSSQSLLNSGNQKNYLTWYQQKPGQPPKLLIYWASTRESGVPDRFSGSGSGTDFTLTISSLQAEDVAVYYCQNDYSYPYTFGQGTKLEIKGGGSGGGGEVQLVESGGGLVQPGGSLRLSCAASGFTFSTYAMNWVRQAPGKGLEWVGRIRSKYNNYATYYADSVKDRFTISRDDSKNSLYLQMNSLKTEDTAVYYCVRHGNFGNSYVSWFAYWGQGTLVTVSSGGCGGGKVAALKEKVAALKEKVAALKEKVAALKE
What is called Kd is the free concentration of one partner at which half of the binding sites on the other are occupied at equilibrium, for simple one-to-one binding. Read a low Kd as a tighter complex. What is called koff is the first-order rate constant of dissociation. What is called kon is a measure of how fast the partners come together. The low end stands for slow association, the high end for fast association. In assay [1], B1 yielded a Kd of 9.2 nM, a koff of 0.005 s⁻¹ and a kon of 550000 M⁻¹ s⁻¹. In assay [2], the Kd is 9 nM, the koff stood at 0.005 s⁻¹ and the kon turned out to be 570000 M⁻¹ s⁻¹.
